Results as given in the supplement of paper PMC10065799, “High-throughput profiling of sequence recognition by tyrosine kinases and SH2 domains using bacterial peptide display” (eLife, 2023).

biological target: FGFR1 (UniProt P11362); assay: phosphorylation enrichment, bacterial display (enrichment ratio); higher = better substrate or ligand; peptides without Tyr show the background
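Further: 11-residue human phosphosite peptides and single-mutation variants displayed on the E. coli surface, counted by deep sequencing, each peptide's frequency after selection divided by its frequency in the unselected input library; frequency after pTyr selection over input frequency; kinase dosed for 20-30% of maximal phosphorylation in three min.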

Chain of FGFR1 (P11362 whole entry, looked up): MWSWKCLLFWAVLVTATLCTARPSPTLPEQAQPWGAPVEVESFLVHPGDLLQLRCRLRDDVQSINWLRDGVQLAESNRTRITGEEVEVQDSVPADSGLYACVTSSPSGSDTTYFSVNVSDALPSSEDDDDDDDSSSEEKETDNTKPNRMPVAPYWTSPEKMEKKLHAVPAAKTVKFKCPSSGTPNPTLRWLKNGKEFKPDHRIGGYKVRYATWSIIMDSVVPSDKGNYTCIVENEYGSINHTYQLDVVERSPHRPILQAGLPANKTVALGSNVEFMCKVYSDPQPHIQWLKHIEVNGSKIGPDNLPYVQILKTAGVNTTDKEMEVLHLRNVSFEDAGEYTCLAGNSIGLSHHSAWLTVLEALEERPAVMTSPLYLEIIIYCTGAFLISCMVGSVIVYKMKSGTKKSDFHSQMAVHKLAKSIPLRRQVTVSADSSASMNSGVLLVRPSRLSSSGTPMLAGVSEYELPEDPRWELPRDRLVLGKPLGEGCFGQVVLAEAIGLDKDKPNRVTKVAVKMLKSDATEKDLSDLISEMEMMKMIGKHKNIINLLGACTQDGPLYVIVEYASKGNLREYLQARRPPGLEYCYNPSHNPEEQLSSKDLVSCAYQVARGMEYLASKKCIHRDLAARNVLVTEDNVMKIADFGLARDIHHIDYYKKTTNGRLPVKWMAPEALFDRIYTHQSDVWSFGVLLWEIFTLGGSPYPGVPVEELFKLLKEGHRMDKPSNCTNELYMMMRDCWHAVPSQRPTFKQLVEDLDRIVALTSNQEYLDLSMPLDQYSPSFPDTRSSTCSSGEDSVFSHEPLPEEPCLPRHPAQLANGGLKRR

Row | Sequence | phosphorylation enrichment
1 | WGLRSYFETSK [MAGED2_Y448_YF] | 0.536
2 | FLAATYPTLGQ [NF1_Y2508_V2511L_YF] | 0.424
3 | DLQDENDFKCK [STAT1_Y170_Y170N] | 0.568
4 | PASLSYLSFEG [EXOSC3_Y143] | 0.591
5 | KHASTYREAAT [DEAF1_Y483] | 0.339
6 | GMKIVYVYVKK [DNAI2_Y5_E2K] | 0.479
7 | QQLDEYQKLLD [LMNA_Y359_E361K] | 0.65
8 | LLKAGYQGVLR [TTPA_Y100_H101Q] | 0.67
9 | EIRTQYEAMAS [GFAP_Y242] | 0.638
10 | PVQDAYQKVVA [HBB_Y131_A129D] | 0.397
11 | DPYHVYIKNRV [KCNE3_Y95] | 0.407
12 | GKVFIYHGSSL [ITGA7_Y458] | 0.596
13 | TESALYGCTVV [KIAA1804_Y724_L729V] | 0.517
14 | EFGEVYKGTLK [EPHA2_Y628_M631T] | 0.386
15 | KWELRYMHSRV [ABCD1_Y281_G277W] | 0.393
16 | TQTPPYVKKHP [LARP1B_Y457] | 0.34
17 | SVESPYGSVTF [NDRG2_Y47_T45S] | 0.456

Row | Sequence | phosphorylation enrichment
18 | QRPFVYFFSFL [PTEN_Y176_R173P_YF] | 0.789
19 | TVLEPYADPFF [ZC3H18_Y367_YF] | 0.753
20 | SVVVRYEPPEV [TP53_Y220_P219R] | 0.409
21 | GIVTGYLVLKE [DNMT3B_Y588_A585V] | 0.553
22 | ADLTEYLSTHF [UQCRC1_Y219_YF] | 0.699
23 | VPVPGYTKVPE [SPRR3_Y146_L149V] | 0.437
24 | QMVGMYAFSFM [AVPR2_Y124_S126F_YF] | 0.846
25 | ATHSGYRLNDF [CLDN14_Y233_YF] | 0.322
26 | FEDTLYTVLHR [UNC13D_Y61_A59T_YF] | 1.18
27 | HLEKKYVRRDS [CSF1R_Y708] | 2.42
28 | ASENVYVNIAH [CTSC_Y150] | 3.4
29 | KGEDFYCVTYH [FHL1_Y149_C153Y] | 1.1
30 | EFLRNYFTDKA [DSG2_Y775] | 0.569
31 | LRVKMYNFLRS [ADGRG7_Y760] | 1.71
32 | PPQFSYGLQTQ [SRA1_Y35] | 0.586
33 | YIGVTYKNKED [PDGFRA_Y993_E996K] | 0.819

biological target: EPHB1 (UniProt P54762); assay: as above
Sequence (P54762 whole entry, looked up): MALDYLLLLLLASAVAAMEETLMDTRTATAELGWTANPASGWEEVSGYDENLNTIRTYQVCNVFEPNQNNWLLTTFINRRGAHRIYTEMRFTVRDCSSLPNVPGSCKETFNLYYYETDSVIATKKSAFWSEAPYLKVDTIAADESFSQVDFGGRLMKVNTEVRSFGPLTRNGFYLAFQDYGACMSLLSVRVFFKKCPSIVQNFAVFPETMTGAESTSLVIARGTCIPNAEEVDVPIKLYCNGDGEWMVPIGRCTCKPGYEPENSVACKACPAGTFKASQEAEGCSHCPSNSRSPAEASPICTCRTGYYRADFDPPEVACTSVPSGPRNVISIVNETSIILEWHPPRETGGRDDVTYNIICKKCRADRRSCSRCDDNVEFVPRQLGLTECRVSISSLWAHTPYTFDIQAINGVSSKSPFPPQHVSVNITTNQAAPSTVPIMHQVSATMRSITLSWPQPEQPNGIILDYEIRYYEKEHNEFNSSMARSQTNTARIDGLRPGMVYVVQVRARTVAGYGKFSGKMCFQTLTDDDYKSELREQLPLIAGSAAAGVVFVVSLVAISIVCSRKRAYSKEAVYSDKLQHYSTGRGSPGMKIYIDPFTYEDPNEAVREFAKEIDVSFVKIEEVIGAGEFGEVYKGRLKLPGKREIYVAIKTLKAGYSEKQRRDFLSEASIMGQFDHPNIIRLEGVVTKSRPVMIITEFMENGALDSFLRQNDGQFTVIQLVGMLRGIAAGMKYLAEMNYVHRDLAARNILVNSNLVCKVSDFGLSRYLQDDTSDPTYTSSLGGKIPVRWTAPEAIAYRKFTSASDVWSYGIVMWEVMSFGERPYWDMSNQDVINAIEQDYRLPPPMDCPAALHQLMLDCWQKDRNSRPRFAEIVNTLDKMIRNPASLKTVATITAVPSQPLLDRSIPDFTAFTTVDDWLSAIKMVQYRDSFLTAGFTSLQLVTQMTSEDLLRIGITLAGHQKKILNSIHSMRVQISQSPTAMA

Row | Sequence | phosphorylation enrichment
34 | WGLRSYFETSK [MAGED2_Y448_YF] | 0.553
35 | FLAATYPTLGQ [NF1_Y2508_V2511L_YF] | 0.723
36 | DLQDENDFKCK [STAT1_Y170_Y170N] | 0.621
37 | PASLSYLSFEG [EXOSC3_Y143] | 0.745
38 | KHASTYREAAT [DEAF1_Y483] | 0.328
39 | GMKIVYVYVKK [DNAI2_Y5_E2K] | 0.567
40 | QQLDEYQKLLD [LMNA_Y359_E361K] | 1.27
41 | LLKAGYQGVLR [TTPA_Y100_H101Q] | 0.648
42 | EIRTQYEAMAS [GFAP_Y242] | 0.45
43 | PVQDAYQKVVA [HBB_Y131_A129D] | 0.445
44 | DPYHVYIKNRV [KCNE3_Y95] | 0.544
45 | GKVFIYHGSSL [ITGA7_Y458] | 0.655
46 | TESALYGCTVV [KIAA1804_Y724_L729V] | 0.783
47 | EFGEVYKGTLK [EPHA2_Y628_M631T] | 0.539
48 | KWELRYMHSRV [ABCD1_Y281_G277W] | 0.517
49 | TQTPPYVKKHP [LARP1B_Y457] | 0.458
50 | SVESPYGSVTF [NDRG2_Y47_T45S] | 0.501

Row | Sequence | phosphorylation enrichment
51 | QRPFVYFFSFL [PTEN_Y176_R173P_YF] | 0.783
52 | TVLEPYADPFF [ZC3H18_Y367_YF] | 0.432
53 | SVVVRYEPPEV [TP53_Y220_P219R] | 0.445
54 | GIVTGYLVLKE [DNMT3B_Y588_A585V] | 0.684
55 | ADLTEYLSTHF [UQCRC1_Y219_YF] | 0.681
56 | VPVPGYTKVPE [SPRR3_Y146_L149V] | 0.365
57 | QMVGMYAFSFM [AVPR2_Y124_S126F_YF] | 1.95
58 | ATHSGYRLNDF [CLDN14_Y233_YF] | 0.472
59 | FEDTLYTVLHR [UNC13D_Y61_A59T_YF] | 9.72
60 | HLEKKYVRRDS [CSF1R_Y708] | 1.61
61 | ASENVYVNIAH [CTSC_Y150] | 1.92
62 | KGEDFYCVTYH [FHL1_Y149_C153Y] | 1.09
63 | EFLRNYFTDKA [DSG2_Y775] | 0.572
64 | LRVKMYNFLRS [ADGRG7_Y760] | 1.41
65 | PPQFSYGLQTQ [SRA1_Y35] | 0.333
66 | YIGVTYKNKED [PDGFRA_Y993_E996K] | 0.564

biological target: Fyn (UniProt P06241); assay: as above
Sequence (P06241 whole entry, looked up): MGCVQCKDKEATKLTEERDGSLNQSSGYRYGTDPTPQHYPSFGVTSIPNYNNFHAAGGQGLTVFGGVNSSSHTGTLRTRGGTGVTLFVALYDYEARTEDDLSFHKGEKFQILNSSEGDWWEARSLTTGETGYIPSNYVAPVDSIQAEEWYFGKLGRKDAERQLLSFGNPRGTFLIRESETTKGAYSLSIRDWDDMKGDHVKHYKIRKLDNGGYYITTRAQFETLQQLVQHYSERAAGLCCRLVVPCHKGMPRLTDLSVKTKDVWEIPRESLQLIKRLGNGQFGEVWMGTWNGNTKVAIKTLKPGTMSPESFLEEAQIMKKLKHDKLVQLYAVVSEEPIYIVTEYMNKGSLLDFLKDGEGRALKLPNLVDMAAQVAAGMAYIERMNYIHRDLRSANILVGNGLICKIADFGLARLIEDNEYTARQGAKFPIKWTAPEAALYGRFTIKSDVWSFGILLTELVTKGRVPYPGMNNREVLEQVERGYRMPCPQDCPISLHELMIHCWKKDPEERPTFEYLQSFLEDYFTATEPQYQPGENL

Row | Sequence | phosphorylation enrichment
67 | WGLRSYFETSK [MAGED2_Y448_YF] | 0.526
68 | FLAATYPTLGQ [NF1_Y2508_V2511L_YF] | 0.422
69 | DLQDENDFKCK [STAT1_Y170_Y170N] | 0.548
70 | PASLSYLSFEG [EXOSC3_Y143] | 0.819
71 | KHASTYREAAT [DEAF1_Y483] | 0.322
72 | GMKIVYVYVKK [DNAI2_Y5_E2K] | 0.466
73 | QQLDEYQKLLD [LMNA_Y359_E361K] | 0.724
74 | LLKAGYQGVLR [TTPA_Y100_H101Q] | 0.265
75 | EIRTQYEAMAS [GFAP_Y242] | 0.55
76 | PVQDAYQKVVA [HBB_Y131_A129D] | 0.366
77 | DPYHVYIKNRV [KCNE3_Y95] | 1.02
78 | GKVFIYHGSSL [ITGA7_Y458] | 0.42
79 | TESALYGCTVV [KIAA1804_Y724_L729V] | 5.73
80 | EFGEVYKGTLK [EPHA2_Y628_M631T] | 0.373
81 | KWELRYMHSRV [ABCD1_Y281_G277W] | 0.458
82 | TQTPPYVKKHP [LARP1B_Y457] | 0.459
83 | SVESPYGSVTF [NDRG2_Y47_T45S] | 7.99

Row | Sequence | phosphorylation enrichment
84 | QRPFVYFFSFL [PTEN_Y176_R173P_YF] | 0.721
85 | TVLEPYADPFF [ZC3H18_Y367_YF] | 0.526
86 | SVVVRYEPPEV [TP53_Y220_P219R] | 0.371
87 | GIVTGYLVLKE [DNMT3B_Y588_A585V] | 0.492
88 | ADLTEYLSTHF [UQCRC1_Y219_YF] | 0.577
89 | VPVPGYTKVPE [SPRR3_Y146_L149V] | 0.494
90 | QMVGMYAFSFM [AVPR2_Y124_S126F_YF] | 1.16
91 | ATHSGYRLNDF [CLDN14_Y233_YF] | 0.419
92 | FEDTLYTVLHR [UNC13D_Y61_A59T_YF] | 5.65
93 | HLEKKYVRRDS [CSF1R_Y708] | 1.64
94 | ASENVYVNIAH [CTSC_Y150] | 1.99
95 | KGEDFYCVTYH [FHL1_Y149_C153Y] | 2.6
96 | EFLRNYFTDKA [DSG2_Y775] | 0.48
97 | LRVKMYNFLRS [ADGRG7_Y760] | 1.75
98 | PPQFSYGLQTQ [SRA1_Y35] | 0.346
99 | YIGVTYKNKED [PDGFRA_Y993_E996K] | 0.505

biological target: Hck (UniProt P08631); assay: as above
Sequence (P08631 whole entry, looked up): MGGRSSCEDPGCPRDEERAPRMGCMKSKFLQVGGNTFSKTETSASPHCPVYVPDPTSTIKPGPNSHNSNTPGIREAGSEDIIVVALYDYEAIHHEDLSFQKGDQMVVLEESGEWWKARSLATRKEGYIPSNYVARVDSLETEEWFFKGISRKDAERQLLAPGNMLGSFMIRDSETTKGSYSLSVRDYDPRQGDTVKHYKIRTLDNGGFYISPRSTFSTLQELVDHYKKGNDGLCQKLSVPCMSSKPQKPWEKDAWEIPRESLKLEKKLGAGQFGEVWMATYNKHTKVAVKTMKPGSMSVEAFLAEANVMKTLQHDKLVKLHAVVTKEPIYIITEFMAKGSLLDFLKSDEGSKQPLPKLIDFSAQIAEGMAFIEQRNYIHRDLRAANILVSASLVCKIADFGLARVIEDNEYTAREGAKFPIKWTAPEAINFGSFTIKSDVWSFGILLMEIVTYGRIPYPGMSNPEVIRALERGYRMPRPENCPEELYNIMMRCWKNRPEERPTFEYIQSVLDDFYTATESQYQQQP

Row | Sequence | phosphorylation enrichment
100 | WGLRSYFETSK [MAGED2_Y448_YF] | 0.489
101 | FLAATYPTLGQ [NF1_Y2508_V2511L_YF] | 0.389
102 | DLQDENDFKCK [STAT1_Y170_Y170N] | 0.602
103 | PASLSYLSFEG [EXOSC3_Y143] | 0.602
104 | KHASTYREAAT [DEAF1_Y483] | 0.344
105 | GMKIVYVYVKK [DNAI2_Y5_E2K] | 0.459
106 | QQLDEYQKLLD [LMNA_Y359_E361K] | 0.742
107 | LLKAGYQGVLR [TTPA_Y100_H101Q] | 0.713
108 | EIRTQYEAMAS [GFAP_Y242] | 0.534
109 | PVQDAYQKVVA [HBB_Y131_A129D] | 0.353
110 | DPYHVYIKNRV [KCNE3_Y95] | 0.958
111 | GKVFIYHGSSL [ITGA7_Y458] | 0.571
112 | TESALYGCTVV [KIAA1804_Y724_L729V] | 4.37
113 | EFGEVYKGTLK [EPHA2_Y628_M631T] | 0.398
114 | KWELRYMHSRV [ABCD1_Y281_G277W] | 0.474
115 | TQTPPYVKKHP [LARP1B_Y457] | 0.357
116 | SVESPYGSVTF [NDRG2_Y47_T45S] | 5.03

Row | Sequence | phosphorylation enrichment
117 | QRPFVYFFSFL [PTEN_Y176_R173P_YF] | 0.426
118 | TVLEPYADPFF [ZC3H18_Y367_YF] | 0.65
119 | SVVVRYEPPEV [TP53_Y220_P219R] | 0.42
120 | GIVTGYLVLKE [DNMT3B_Y588_A585V] | 0.505
121 | ADLTEYLSTHF [UQCRC1_Y219_YF] | 0.604
122 | VPVPGYTKVPE [SPRR3_Y146_L149V] | 0.526
123 | QMVGMYAFSFM [AVPR2_Y124_S126F_YF] | 1.06
124 | ATHSGYRLNDF [CLDN14_Y233_YF] | 0.391
125 | FEDTLYTVLHR [UNC13D_Y61_A59T_YF] | 7.58
126 | HLEKKYVRRDS [CSF1R_Y708] | 1.23
127 | ASENVYVNIAH [CTSC_Y150] | 1.94
128 | KGEDFYCVTYH [FHL1_Y149_C153Y] | 1.71
129 | EFLRNYFTDKA [DSG2_Y775] | 0.414
130 | LRVKMYNFLRS [ADGRG7_Y760] | 1.59
131 | PPQFSYGLQTQ [SRA1_Y35] | 0.443
132 | YIGVTYKNKED [PDGFRA_Y993_E996K] | 0.753
